PMC9548408

Columns and labels:
[1] = target: human lysosomal α-L-fucosidase (FucA1) (human) (UniProt P04066); assay: SEC-MALS; SEC-MALLS, Superdex S200 10/300, 20 mM HEPES pH 7.4, 200 mM NaCl, room temperature (20 ± 2°C), 100 μL injected at 0.8 mg/mL
[2] = target: human lysosomal α-L-fucosidase (FucA1) (human) (UniProt P04066); assay: cryo-EM structure; single-particle cryo-EM, 200 kV Glacios, D2 symmetry imposed; unliganded FucA1 at 2 mg/mL, and FucA1 at 1.5 mg/mL with 1 mM deoxyfuconojirimycin in 60 mM phosphate citrate pH 4.5

stoichiometry N [1]: 4
stoichiometry N [2]: 4
Substance: human lysosomal α-L-fucosidase (FucA1) (from UniProt P04066 32-466) (enzyme)
